The text below walks through data of PMC4310620.

What all share (assay): purified protein
What all share (type): biochemical, Chromohalobacter israelensis

Substrate in series [1]: NCCO
Conditions: 50 mM L-glutamate, 5 mM ATP, 15 mM MgCl2, pH 7.9, 25 °C.

Substrate in series [2]: N[C@@H](CCC(=O)O)C(=O)O
Conditions: 20 mM ethanolamine, 5 mM ATP, 15 mM MgCl2, pH 7.9, 25 °C.

Substrate in series [3]: C[C@H](N)CO
Conditions: 50 mM L-glutamate, 5 mM ATP, 15 mM MgCl2, pH 7.9, 25 °C.

B1: Csal_0679 (Chromohalobacter israelensis DSM 3043) (protein)
chain: MTNTLALDDLKTRVESGEIDTVLVCIVDMQGRLMGKRLHARHFVDHGWEETHCCNYLLATDLEMATPGGYASTSWQAGYGDYIMKPDLATLRCVPWLEGTAMVLCDLLDHRTHAEVPHAPRAILKRQLARLEAMGLEAIMATELEFFLFEKSLDEIRKGRFRDLQPISGYNEDYHIFQTTKEEHVLRPLRNHLHAAGIPVEGTKGEAGAGQEELNIRCAKALDTADYHTIAKHATKEIAWQQGRAVTFLSKWHHAHAGSSSHIHQSLWKQGLPAFHDERDALGMSALMKHYLAGLLKYAPDYTYFLAPYLNSYKRFQKGTFAPTRTVWSVDNRTAGFRLCAEGTRAVRIECRIGGSDLNPYLAMAGQLAAGIKGIEECLALPPPAEGDTYEGGSGLIPQNLRDAMEALRGSTMLREAMGEDVVDHYVRAAEVELEDFQRVVSDYEVARGFERC
The Km is the concentration of substrate that gives half-maximal velocity. One may read the kcat as the maximal rate divided by the concentration of active sites. Broadly, the kcat/Km is the second-order rate constant that governs catalysis at low substrate concentration. B1: in the series “purified protein [1]”, the Michaelis-Menten constant (Km) stood at 34 ± 4 µM, the kcat is 0.38 ± 0.009 s⁻¹ and the kcat/Km stood at 11000 M⁻¹ s⁻¹. Further, in the series “purified protein [2]”, the Km came out at 7800 ± 1000 µM, the kcat was found to be 0.4 ± 0.02 s⁻¹ and the kcat/Km amounted to 51 M⁻¹ s⁻¹. Also, in “purified protein [3]”, the Km was 100 ± 10 µM, the kcat worked out at 0.35 ± 0.01 s⁻¹ and the kcat/Km was 3400 M⁻¹ s⁻¹.
